Paper doi:10.1101/2023.01.17.524225 (bioRxiv, 2023)
Primed or numbered codes have the meaning given here. No end group written: not given here. FITC′ = not defined here

Biological target: T1, GID4 (aa 116-300) (human, UniProt Q8IVV7 116-300)
T1 sequence: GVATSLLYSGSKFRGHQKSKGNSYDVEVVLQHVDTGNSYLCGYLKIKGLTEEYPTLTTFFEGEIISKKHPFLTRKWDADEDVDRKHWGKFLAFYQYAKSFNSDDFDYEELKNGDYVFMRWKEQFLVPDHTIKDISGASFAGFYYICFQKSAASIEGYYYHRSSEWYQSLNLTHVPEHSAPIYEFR
Test: fluorescence polarisation

PGLWKS-{FITC′} [C-terminally FITC-labelled PGLWKS peptide]
binding result: binds
